Test results from doi:10.1101/2022.07.21.500954 (bioRxiv, 2022).

Target: the molecule itself
Test: SEC-MALS

B1: cerato-platanin-like protein 1 (Cpl1) from Ustilago maydis, tag-free recombinant protein (natural protein, UniProt A0A0D1E4Q7 22-240, looked up)
chain: AVDITFTSGKFNRRDDSTVVKQKNPEFGMNLANQYIIRKGAGLPPAKDVKETYPECKWRHYAGSFGWLDDYNVQCYLSPSYKFHAHSIAKAFKAEPSTKAGACFDTANTDQFPEGVPKYSIGVPYLYMNNLYDRRCKVRAMVKIPKTDEHEEKWVQAWVIDHNLGNWDKDGKENDAYPKDGVLIDTNMYEQFFDKNKKVPDYSKTVPVEWFFLDINTVG
stoichiometry N: 2
